Experimental data taken from publication PMC2291074 (Molecular Vision, 2008).
Ends that are not written are not given here.

B1: substituted peptide (peptide)
peptide: SDADHGERLMSFRPIC
B2: sulfo-SBED-derivatized βA3/A1_(102–117) peptide (peptide)
peptide: SDAYHIERLMSFRPIC
modifications: also: sulfo-SBED cross-linker attached, site not given here
notes: The peptide has no lysine, so the amine-specific reagent probably sits on the N-terminal amine; also called biotin-derivatized peptide; source: synthetic peptide, purified by HPLC, derivatized with sulfo-SBED and dialyzed

Tests used:
[1] = target: T1, recombinant human αB-crystallin (human, UniProt P02511 1-175)
T1 construct: human αB-crystallin, cDNA cloned into pET-23d(+); tryptic peptides 1-11 and 164-175 were observed; No tag is named and purification was by SEC and ion exchange, so it is probably untagged; source: E. coli BL21(DE3) pLysS, purified (size exclusion chromatography, then ion-exchange chromatography)
T1 sequence (looked up): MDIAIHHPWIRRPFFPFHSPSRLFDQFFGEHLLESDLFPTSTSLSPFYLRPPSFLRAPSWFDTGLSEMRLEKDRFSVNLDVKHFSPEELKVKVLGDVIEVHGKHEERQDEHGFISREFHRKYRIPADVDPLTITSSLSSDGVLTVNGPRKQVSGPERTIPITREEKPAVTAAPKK

[2] = target: T1, recombinant human αB-crystallin; assay: cross-linking; sulfo-SBED label transfer: 0.25 mg derivatized peptide with 0.25 mg αB-crystallin at 37 °C for 2 h; unbound peptide removed on a 10,000 Da cut-off filter; photolysis at 365 nm for 15 min on ice; biotin on αB-crystallin detected by SDS-PAGE and avidin-HRP blot; details: both partners purified

Binder | light scattering at 60 min of βL-crystallin (100 μg) denatured at 55 °C with 5 μg αB-crystallin and 60 μg substituted peptide (αB-crystallin alone: decreased by 41%); no anti-chaperone effect [1] | binding result [2]
B1 | 53% | 
B2 |  | binds
